Assay results as given in US20230076063.

Tests used:
Test in all cases: cell_activity
[1] = test system: MamA E270A E270A (Mycobacterium tuberculosis); conditions: SMRT sequencing kinetics; partial stochastic methylation
[2] = test system: MamA G152S G152S (Mycobacterium tuberculosis); conditions: SMRT sequencing kinetics; partial stochastic methylation
[3] = test system: MamA W136R W136R (Mycobacterium tuberculosis); conditions: SMRT sequencing kinetics; methylation knockout, binding itself not measured
[4] = test system: MamB K1033T K1033T (Mycobacterium tuberculosis); conditions: SMRT sequencing kinetics; single isolate

Substance | activity (mean SMALR native score) [1] | activity (mean SMALR native score) [2] | activity (mean SMALR native score) [3] | activity (mean SMALR native score) [4]
CTGGAG (double strand) [MamA target motif sites] | 0.0558 | 0.766 | -0.107 | –
MamB target motif sites | – | – | – | 0.299
